± gives the uncertainty stated by the source.
Assay: self-splicing fitness, log relative to wild type (ln ratio); higher = more splicing; Tetrahymena group I intron in knt gene, E. coli kanamycin selection, DiMSum; sequences stand for … in CUCUCU…GGAGGGAAAAGUUAUCAGGCAUGCACCUGGUAGCUAGUCUUUAAACCAAUAGAUUGCAUCGGUUUAAAAGGCAAGACCGUCAAAUUGCGGGAAAGGGGUCAACAGCCGUUCAGUACCAAGUCUCAGGGGAAACUUUGAGAUGGCCUUGCAAAGGGUAUGGUAAUAAGCUGACGGACAUGGUCCUAACCACGCAGCCAAGUCCUAAGUCAACAGAUCUUCUGUUGAUAUGGAUGCAGUUCACAGACUAAAUGUCGGUCGGGGAAGAUGUAUUCUUCUCAUAAGAUAUAGUCGGACCUCUCCUUAAUGGGAGCUAGCGGAUGAAGUGAUGCAACACUGGAGCCGCUGGGAACUAAUUUGUAUGCGAAAGUAUAUUGAUUAGUUUUGGAGUACUCGUGGUCG
Procedure, shortened: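 Fitness was computed with DiMSum as the error-weighted combination of replicate fold changes, kanamycin versus none, each normalised to wild type. The library randomised all eight intron nucleotides of the P1ex region, with the intron placed in the knt kanamycin-resistance gene on pET-22b(+) in E. coli BL21(DE3). Six replicate transformations were grown overnight at 37°C or 30°C on LB agar with or without 25 μg/mL kanamycin, plus 100 μg/mL carbenicillin, 50 μM IPTG and 0.2% rhamnose. Pooled colonies were amplicon-sequenced on an Illumina HiSeq 2500.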

Row | Sequence | self-splicing fitness (ln) (30 °C) | self-splicing fitness (ln) (37 °C)
1 | ACGGAGCAAUAUUACGUCAG | -3.38 ± 0.19 | -1.69 ± 0.18
2 | UACGAGCAAUAUUACGUCGG | -3.5 ± 0.23 | -1.38 ± 0.15
3 | ACUUAGCAAUAUUACGCGAG | -1.93 ± 0.15 | -1.76 ± 0.13
4 | GGCAAGCAAUAUUACGACAA | -0.0702 ± 0.12 | -0.492 ± 0.13
5 | AUGAAGCAAUAUUACGCAUU | -3.78 ± 0.43 | -2.52 ± 0.31
6 | CUAGAGCAAUAUUACGCUCC | -2.45 ± 0.42 | –
7 | AUACAGCAAUAUUACGACGG | -3.2 ± 0.15 | -0.835 ± 0.13
8 | GGUUAGCAAUAUUACGCAUU | -0.941 ± 0.075 | -0.185 ± 0.086
9 | AAGGAGCAAUAUUACGACUA | -1.51 ± 0.17 | -0.705 ± 0.27
10 | ACCUAGCAAUAUUACGUAUA | -1.6 ± 0.1 | -1.46 ± 0.12
11 | GACUAGCAAUAUUACGAAUA | -2.54 ± 0.24 | -0.356 ± 0.21
12 | GGAGAGCAAUAUUACGGCAG | -3.29 ± 0.38 | –
13 | GCUCAGCAAUAUUACGACGU | 0.0949 ± 0.072 | 0.267 ± 0.079
14 | GACGAGCAAUAUUACGAACU | -1.83 ± 0.11 | -0.278 ± 0.11
15 | GGCAAGCAAUAUUACGGACG | -0.442 ± 0.089 | -0.416 ± 0.086
16 | ACACAGCAAUAUUACGAUUU | -0.589 ± 0.036 | 0.0571 ± 0.056
17 | ACGAAGCAAUAUUACGCAUG | -1.79 ± 0.062 | -0.62 ± 0.083
18 | GAAGAGCAAUAUUACGGGUG | -3.28 ± 0.15 | -2.01 ± 0.17
19 | CUCCAGCAAUAUUACGGAAA | -2.25 ± 0.13 | -1.55 ± 0.12
20 | AGGGAGCAAUAUUACGCUGG | -4.26 ± 0.37 | -1.67 ± 0.26

Row | Sequence | self-splicing fitness (ln) (30 °C) | self-splicing fitness (ln) (37 °C)
21 | UAAGAGCAAUAUUACGUGCC | -3.13 ± 0.15 | -3.48 ± 0.34
22 | UGCAAGCAAUAUUACGUAUA | -2.49 ± 0.18 | -0.379 ± 0.12
23 | UUCAAGCAAUAUUACGUAAU | -2.49 ± 0.087 | -1.56 ± 0.1
24 | CCCGAGCAAUAUUACGAGAA | -3.69 ± 0.43 | -2.1 ± 0.34
25 | GCGGAGCAAUAUUACGUUAG | -2.8 ± 0.23 | -1.99 ± 0.35
26 | AUAUAGCAAUAUUACGGGUA | -2.09 ± 0.25 | -0.788 ± 0.19
27 | GGGAAGCAAUAUUACGGUGA | -1.76 ± 0.3 | -0.447 ± 0.18
28 | ACAGAGCAAUAUUACGCAGA | – | -2.25 ± 0.33
29 | CUAGAGCAAUAUUACGCUCG | -3.8 ± 0.46 | -1.69 ± 0.36
30 | ACCAAGCAAUAUUACGAAAC | -4.33 ± 0.34 | -1.71 ± 0.25
31 | CUUGAGCAAUAUUACGUGCA | -3.2 ± 0.29 | -1.94 ± 0.25
32 | ACCAAGCAAUAUUACGCGAA | -3.09 ± 0.13 | -1.65 ± 0.1
33 | AUCGAGCAAUAUUACGACUA | -1.54 ± 0.24 | -0.741 ± 0.15
34 | CGACAGCAAUAUUACGUACG | -3.63 ± 0.21 | -2.92 ± 0.38
35 | GACAAGCAAUAUUACGCCGC | -3.31 ± 0.4 | -2.97 ± 0.43
36 | AUGUAGCAAUAUUACGUCCG | -2.71 ± 0.13 | -1.39 ± 0.12
37 | CGAAAGCAAUAUUACGUAAC | – | -0.987 ± 0.5
38 | CUAUAGCAAUAUUACGGCGA | – | -0.914 ± 0.47
39 | AGACAGCAAUAUUACGUACA | -0.745 ± 0.078 | -0.238 ± 0.097
